Source: article doi:10.1101/2025.03.04.641466

What was measured:
[1] = molecular target: EGFP-vinculin (UniProt P18206); experiment: FRET or BRET
[2] = molecular target: mTFP1-vinculin (UniProt P18206); experiment: FRET or BRET

With “RIAM-mScarlet (RIAM C-terminally tagged with mScarlet-I) (from UniProt Q7Z5R6 1-666) (natural protein)” the FRET efficiency [1] was 13.5.
In the case of “mScarlet-RIAM (RIAM N-terminally tagged with mScarlet-I) (from UniProt Q7Z5R6 1-666) (natural protein)”, the FRET efficiency [1] is reported as 16.4 and the FRET efficiency [2] is reported as 20%.
